The record followed here is publication PMC8263621, “A simple label-free electrochemical sensor for sensitive detection of alpha-fetoprotein based on specific aptamer immobilized platinum nanoparticles/carboxylated-graphene oxide”.

The target in this data set is T1, alpha-fetoprotein (AFP) (UniProt P02771 19-609).
T1 sequence: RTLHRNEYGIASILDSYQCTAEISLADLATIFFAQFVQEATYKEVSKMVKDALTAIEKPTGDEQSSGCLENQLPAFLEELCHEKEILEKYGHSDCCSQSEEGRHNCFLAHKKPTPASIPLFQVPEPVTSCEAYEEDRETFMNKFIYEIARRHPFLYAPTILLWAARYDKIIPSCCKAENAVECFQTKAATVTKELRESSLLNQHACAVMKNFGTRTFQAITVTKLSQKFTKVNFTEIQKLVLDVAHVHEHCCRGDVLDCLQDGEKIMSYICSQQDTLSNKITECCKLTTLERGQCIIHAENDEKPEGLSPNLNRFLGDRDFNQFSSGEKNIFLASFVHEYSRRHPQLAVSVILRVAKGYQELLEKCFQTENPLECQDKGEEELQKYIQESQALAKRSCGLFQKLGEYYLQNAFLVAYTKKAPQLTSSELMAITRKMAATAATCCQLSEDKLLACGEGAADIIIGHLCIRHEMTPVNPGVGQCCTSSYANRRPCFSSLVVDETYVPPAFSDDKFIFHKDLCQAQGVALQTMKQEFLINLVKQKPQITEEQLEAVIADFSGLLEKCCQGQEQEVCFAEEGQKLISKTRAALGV
The data set can be described thus: electrochemical aptasensor (CV/SWV); aptamer immobilized on PtNPs/GO-COOH/SPGE; 3 mM hydroquinone probe; LOD 1.22 ng/mL, linear 3-30 ng/mL (not a Kd); 10 mM PBS pH 7.4, 3 mM hydroquinone for readout; BSA-blocked electrode (0.25% w/v); AFP incubation 45 min at room temperature. The conditions noted are these: protein: commercial.

B1: AFP aptamer (ssDNA)
DNA: GTGACGCTCCTAACGCTGACTCAGGTGCAGTTCTCGACTCGGTCTTGATGTGGGTCCTGTCCGTCCGAACCAATC
modifications: 5'-NH2
On to B1, for which the binding result is recorded as “binds”.
